Here are results for three molecules from article doi:10.1101/264085 (bioRxiv, 2018).

In data set [1] the target is T1, NDP52(1-126) (human, UniProt Q13137 1-126).
T1 sequence (looked up): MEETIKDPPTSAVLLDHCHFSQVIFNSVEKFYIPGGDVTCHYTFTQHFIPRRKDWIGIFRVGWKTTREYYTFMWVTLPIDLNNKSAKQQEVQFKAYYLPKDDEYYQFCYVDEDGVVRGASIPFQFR
As to the kind of experiment: ITC.

Data set [2] deals with the molecule itself. As to the kind of experiment: AUC.
In data set [3] the target is T2, NDP52(10-126) (human, UniProt Q13137 10-126).
T2 sequence (looked up): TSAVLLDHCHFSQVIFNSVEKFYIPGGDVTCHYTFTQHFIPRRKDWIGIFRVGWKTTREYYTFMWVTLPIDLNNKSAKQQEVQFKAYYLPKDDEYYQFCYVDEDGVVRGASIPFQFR
As to the kind of experiment: AUC.

In data set [4] the target is T3, NDP52(1-126) T39E (human, UniProt Q13137 1-126, T39E).
T3 sequence (looked up): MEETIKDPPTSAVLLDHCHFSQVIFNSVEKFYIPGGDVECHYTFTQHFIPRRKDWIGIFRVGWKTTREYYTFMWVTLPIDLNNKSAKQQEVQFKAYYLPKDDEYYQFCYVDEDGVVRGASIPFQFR
Nature of the data set: ITC. On the technique in general: In ITC the heat of successive injections is recorded.

The target in data set [5] is T4, NDP52(10-126) F20Q (human, UniProt Q13137 10-126, F20Q).
T4 sequence (looked up): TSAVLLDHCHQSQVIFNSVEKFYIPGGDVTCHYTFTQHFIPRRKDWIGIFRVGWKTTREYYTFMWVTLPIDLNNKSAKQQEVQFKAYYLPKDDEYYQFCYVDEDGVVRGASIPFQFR
As to the kind of experiment: ITC.

The target in data set [6] is TAX1BP1(1-121) S25E (human, UniProt Q86VP1 1-121, S25E). Nature of the data set: ITC.
Data set [7] has as its target TAX1BP1(1-121) (human, UniProt Q86VP1 1-121). Nature of the data set: ITC.
The target in data set [8] is T2, NDP52(10-126). As to the kind of experiment: crystal structure.

Sequence of TAX1BP1(1-121) (Q86VP1 1-121): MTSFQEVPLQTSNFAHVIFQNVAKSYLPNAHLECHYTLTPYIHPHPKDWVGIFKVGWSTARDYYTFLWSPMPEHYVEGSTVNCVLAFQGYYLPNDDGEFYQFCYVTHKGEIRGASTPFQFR
Sequence of TAX1BP1(1-121) S25E (Q86VP1 1-121 S25E): as the sequence (Q86VP1 1-121) above, with S25E counted along it

B1: NAP1(1-75) (domain or fragment, human, UniProt Q9H6S1 1-75, looked up)
chain: MDALVEDDICILNHEKAHKRDTVTPVSIYSGDESVASHFALVTAYEDIKKRLKDSEKENSLLKKRIRFLEEKLIA
Consider B1, for which the Kd (as a rule, the constant that tells how readily two partners part at equilibrium) in data set [1] was roughly 1800 nM.

Turning to ESVASHFALVTAYEDIKKRLKDSEKENSLLKKRIRFLEEKLIA (domain or fragment, human, UniProt Q9H6S1 33-75, looked up) [NAP1(33-75)], the stoichiometry N (in general, a count of units in the complex or per binding partner) in data set [2] was 2; in data set [3], 2 NDP52(10-126) molecules per NAP1(33-75) dimer; in data set [8], 1 NDP52 chains per NAP1 chain (2:2). In addition, the binding result in data set [4], in data set [5] and in data set [6] was “binds” in each case. Also, the Kd in data set [1] is roughly 1150 nM; in data set [7], roughly 2050 nM.

B2: NAP1(1-85) (domain or fragment, human, UniProt Q9H6S1 1-85, looked up)
chain: MDALVEDDICILNHEKAHKRDTVTPVSIYSGDESVASHFALVTAYEDIKKRLKDSEKENSLLKKRIRFLEEKLIARFEEETSSVG
B2 displayed a Kd in data set [1] of roughly 1490 nM.
